Results published in patent publication US6812377B2, “Genetic engineering of syringyl-enriched lignin in plants” (Board of Control of Michigan Technological University, priority 2000, dated 2004).
Values belong to the molecule of their own block, whether it stands above or below them.

How the values were obtained:
[1] = target: T1, recombinant PtCAD protein (Populus tremuloides, UniProt Q9M632); test: Kinetic properties of the recombinant PtCAD protein (HPLC-UV/MS); assay type: biochemical; settings: substrate of PtCAD; relative, coniferaldehyde = 100
Method: (§1) To characterize the enzyme pH optima, the substrate and recombinant PtCAD or PtSAD protein concentrations described above were used in sodium phosphate buffers, pH 5 to 8.5. […] For inhibition kinetics, the PtCAD-mediated reduction of sinapaldehyde (1 to 200 μM) was assayed in the presence of 1 to 5 μM coniferaldehyde, and the PtSAD-catalyzed reduction of coniferaldehyde (1 to 200 μM) was assayed in the presence of 1 to 5 μM sinapaldehyde. All reactions were terminated by the addition of 10 μL of 6 N HCI (to bring the pH to 2) and 500 ng of internal standard o-coumaric acid and analyzed by HPLC-UV/MS. An aliquot of 100 μL of reaction mixture was injected directly onto a Supelcosil LC-ABZ column (15 cm×4.6 mm×5 μm; Supelco, Bellefonte, Pa.) with automatic sample injection and separated isocratically with a Hewlett-Packard (HP) 1100 liquid chromatography system at 40° C. and a flow rate of 0.25 mL/min. […] The reaction products were identified and confirmed by comparing the ion fragmentation patterns of the product and the authentic standard in MS scanning mode at 70 V. The product quantity and Km, Vmax, kcat, and apparent inhibition constant (Ki) values (means±SE) were determined as described (Osakabe et al., 1999; Li et al., 2000). The results of the inhibition kinetics for both the CAD enzyme (i.e. Table 2) and the SAD enzyme (i.e., Table 3) using a variety of substrates are illustrated below.

[2] = target: recombinant PtSAD protein (Populus tremuloides, UniProt Q94G59); test: Kinetic properties of the recombinant PtSAD protein (HPLC-UV/MS); assay type: biochemical; settings: substrate of PtSAD; relative, sinapaldehyde = 100
Method: as §1

[3] = tested on: PtSAD recombinant protein; test: SAD enzyme activity assay, single and mixed substrates (HPLC-MS); assay type: biochemical, Populus tremuloides
Method: After 10 min at 30° C., the reaction was terminated and extracted with 0.5 ml ethyl acetate. The extraction was repeated 4 times and the combined ethyl acetate was evaporated and dissolved in the HPLC mobile phase for LC-MS identification and quantitation of the reaction products as we did before (Osakabe et al., 1999; Li et al. 2000). […] The SAD reactions with mixed substrates, sinapaldehyde and coniferyl aldehyde, were therefore conducted at the optimal pH 7.0 under above-described conditions. […] To characterize the enzyme pH optima, the substrate and recombinant PtCAD or PtSAD protein concentrations described above were used in sodium phosphate buffers, pH 5 to 8.5. All reactions were for 10 minutes at 30° C. An aliquot of 100 μL of reaction mixture was injected directly onto a Supelcosil LC-ABZ column (15 cm×4.6 mm×5 μm; Supelco, Bellefonte, Pa.) with automatic sample injection and separated isocratically with a Hewlett-Packard (HP) 1100 liquid chromatography system at 40° C. and a flow rate of 0.25 mL/min. […] The reaction products were identified and confirmed by comparing the ion fragmentation patterns of the product and the authentic standard in MS scanning mode at 70 V. The product quantity and Km, Vmax, kcat, and apparent inhibition constant (Ki) values (means±SE) were determined as described (Osakabe et al., 1999; Li et al., 2000). The results of the inhibition kinetics for both the CAD enzyme (i.e. Table 2) and the SAD enzyme (i.e., Table 3) using a variety of substrates are illustrated below.

[4] = target: T1, recombinant PtCAD protein; test: PtCAD enzyme activity with a mixture of coniferaldehyde and sinapaldehyde (HPLC-MS); assay type: biochemical
From the text: A guaiacyl pathway gene encoding coniferyl alcohol dehydrogenase (CAD, FIG. 1) from Populus tremuloides (GenBank #AF217957) was first cloned. This cDNA was designated as PtCAD (GenBank #AF217957). E. coli-expressed recombinant PtCAD protein was characterized for its catalytic activity with coniferaldehyde and sinapaldehyde. Because monolignol biosynthetic pathway intermediates are present together in lignifying tissues (Osakabe et al., 1999; Li et al. 2000), the PtCAD enzyme activity with a mixture of coniferaldehyde and sinapaldehyde was assayed. As shown in FIG. 5 (a) and (c), the reaction mixture was separated by HPLC after the enzyme reaction. […]
An aliquot of 100 μL of reaction mixture was injected directly onto a Supelcosil LC-ABZ column (15 cm×4.6 mm×5 μm; Supelco, Bellefonte, Pa.) with automatic sample injection and separated isocratically with a Hewlett-Packard (HP) 1100 liquid chromatography system at 40° C. and a flow rate of 0.25 mL/min. […] The reaction products were identified and confirmed by comparing the ion fragmentation patterns of the product and the authentic standard in MS scanning mode at 70 V. The product quantity and Km, Vmax, kcat, and apparent inhibition constant (Ki) values (means±SE) were determined as described (Osakabe et al., 1999; Li et al., 2000). […]

[5] = substrate: COc1cc(/C=C/C=O)cc(O)c1O; test: Kinetic properties of the recombinant PtCAD protein (HPLC-UV/MS); assay type: biochemical, Populus tremuloides; settings: other: substrate of PtCAD, pH 8.0, 4 min, 30° C., NADPH, means of three independent assays
Method: as §1

[6] = substrate: COc1cc(/C=C/C=O)cc(OC)c1O; test: as above; assay type: biochemical, Populus tremuloides; settings: other: substrate of PtCAD, pH 8.0, 4 min, 30° C., NADPH, means of three independent assays
Method: as §1

[7] = substrate: COc1cc(/C=C/C=O)ccc1O; test: as above; assay type: biochemical, Populus tremuloides; settings: other: substrate of PtCAD, pH 8.0, 4 min, 30° C., NADPH, means of three independent assays
Method: as §1

[8] = substrate: O=C/C=C/c1ccc(O)c(O)c1; test: as above; assay type: biochemical, Populus tremuloides; settings: other: substrate of PtCAD, pH 8.0, 4 min, 30° C., NADPH, means of three independent assays
Method: as §1

[9] = substrate: O=C/C=C/c1ccc(O)cc1; test: as above; assay type: biochemical, Populus tremuloides; settings: other: substrate of PtCAD, pH 8.0, 4 min, 30° C., NADPH, means of three independent assays
Method: as §1

[10] = substrate: COc1cc(/C=C/C=O)cc(O)c1O; test: Kinetic properties of the recombinant PtSAD protein (HPLC-UV/MS); assay type: biochemical, Populus tremuloides; settings: other: substrate of PtSAD, pH 7.0, 4 min, 30° C., NADPH, means of three independent assays
[11] = substrate: COc1cc(/C=C/C=O)cc(OC)c1O; test: as above; assay type: biochemical, Populus tremuloides; settings: other: substrate of PtSAD, pH 7.0, 4 min, 30° C., NADPH, means of three independent assays
[12] = substrate: COc1cc(/C=C/C=O)ccc1O; test: as above; assay type: biochemical, Populus tremuloides; settings: other: substrate of PtSAD, pH 7.0, 4 min, 30° C., NADPH, means of three independent assays
[13] = substrate: O=C/C=C/c1ccc(O)c(O)c1; test: as above; assay type: biochemical, Populus tremuloides; settings: other: substrate of PtSAD, pH 7.0, 4 min, 30° C., NADPH, means of three independent assays
[14] = substrate: O=C/C=C/c1ccc(O)cc1; test: as above; assay type: biochemical, Populus tremuloides; settings: other: substrate of PtSAD, pH 7.0, 4 min, 30° C., NADPH, means of three independent assays

Vmax/Km [1]: 4.4% | Vmax/Km [2]: 2.2%
Molecule: O=C/C=C/c1ccc(O)c(O)c1 [Caffealdehyde]

Vmax/Km [1]: 12.0% | Vmax/Km [2]: 100% | reaction of PtSAD with the substrate in a mixture ([3]; mixture of coniferaldehyde and sinapaldehyde, pH 7.0): sinapyl alcohol is the exclusive product | catalytic efficiency of PtSAD with sinapaldehyde versus coniferaldehyde ([3]; ratio of specific activities): 9 times | reaction of PtCAD with the substrate in a mixture [4]: no reaction
Molecule: COc1cc(/C=C/C=O)cc(OC)c1O [Sinapaldehyde]

Vmax/Km [1]: 10.6% | Vmax/Km [2]: 15.5%
Molecule: COc1cc(/C=C/C=O)cc(O)c1O [5-Hydroxyconiferaldehyde]

Molecule: O=C/C=C/c1ccc(O)cc1 [p-Coumaraldehyde]
Vmax/Km [1]: 30.1% | Vmax/Km [2]: 27.4%

B1: recombinant PtCAD protein (Populus tremuloides) (protein)
chain: MGSLETERKIVGWAATDSTGHLAPYTYSLRDTGPEDVLIKVISCGICHTDIHQIKNDLGMSHYPMVPGHEVVGEVVEVGSDVTKFKAGDVVGVGVIVGSCKNCHPCKSELEQYCNKKIWSYNDVYTDGKPTQGGFAESMVVDQKFVVRIPDGMSPEQAAPLLCAGLTVYSPLKHFGLKQSGLRGGILGLGGVGHMGVKIAKAMGHHVTVISSSDKKREEAMEHLGADEYLVSSDVESMQKAADQLDYIIDTVPVVHPLEPYLSLLKLDGKLILMGVINTPLQFVSPMVMLGRKSITGSFIGSMKETEEMLEFCKEKGLASMIEVIKMDYINTAFERLEKNDVRYRFVVDVAGSKLIP
Km [5]: 17.5 µM | Vmax [5]: 0.17 µmol/min/mg | kcat [5]: 0.113 s⁻¹ | Km [6]: 9.1 µM | Vmax [6]: 0.1 µmol/min/mg | kcat [6]: 0.0667 s⁻¹ | Km [7]: 2.3 µM | Vmax [7]: 0.21 µmol/min/mg | kcat [7]: 0.14 s⁻¹ | Km [8]: 37.0 µM | Vmax [8]: 0.15 µmol/min/mg | kcat [8]: 0.1 s⁻¹ | Km [9]: 6.2 µM | Vmax [9]: 0.17 µmol/min/mg | kcat [9]: 0.113 s⁻¹

B2: recombinant PtSAD protein (Populus tremuloides) (protein)
chain: MSKSPEEEHPVKAFGWAARDQSGHLSPFNFSRRATGEEDVRFKVLYCGICHSDLHSIKNDWGFSMYPLVPGHEIVGEVTEVGSKVKKVNVGDKVGVGCLVGACHSCESCANDLENYCPKMILTYASIYHDGTITYGGYSDHMVANERYIIRFPDNMPLDGGAPLLCAGITVYSPLKYFGLDEPGKHIGIVGLGGLGHVAVKFAKAFGSKVTVISTSPSKKEEALKNFGADSFLVSRDQEQMQAAAGTLDGIIDTVSAVHPLLPLFGLLKSHGKLILVGAPEKPLELPAFSLIAGRKIVAGSGIGGMKETQEMIDFAAKHNITADIEVISTDYLNTAIERLAKNDVRYRFVIDVGNTLAATKP
Km [10]: 36.1 µM | Vmax [10]: 3.8 µmol/min/mg | kcat [10]: 2.53 s⁻¹ | Km [11]: 7.4 µM | Vmax [11]: 5 µmol/min/mg | kcat [11]: 3.33 s⁻¹ | Km [12]: 12.7 µM | Vmax [12]: 2.3 µmol/min/mg | kcat [12]: 1.53 s⁻¹ | Km [13]: 140.0 µM | Vmax [13]: 2 µmol/min/mg | kcat [13]: 1.33 s⁻¹ | Km [14]: 15.6 µM | Vmax [14]: 2.9 µmol/min/mg | kcat [14]: 1.93 s⁻¹
